The target of the test is SARS-CoV1-SΔ28 (SARS-CoV-1 spike protein truncated at the C terminus, on pseudovirions) (SARS-CoV-1).

In publication PMC7299280 one finds neutralization IC50 of SARS-CoV-1 pseudovirus data, which are given here for 1 substance.

As for CC6.33 (antibody), the neutralization IC50 of SARS-CoV-1 pseudovirus came to 0.162 µg/mL.
